This is an account of results in publication PMC11077054.

Experiment [1] concerns the target nYFP-CmoNAC1 (pumpkin).
For experiment [2], the target named is nYFP-CmoNAC1 (pumpkin). The source holds these as a separate data set.

Consider CmoDREB2A-cYFP (natural protein), for which, in the experiment with nYFP-CmoNAC1 (pumpkin) [1], the LUC/RLU ratio of the reporter with the NACbs of the CmoNCED6 promoter in tobacco: CmoNAC1 + CmoDREB2A against CmoNAC1 alone was 87% and the LUC/RLU ratio of the reporter with the NACbs of the CmoRBOHD1 promoter in tobacco: CmoNAC1 + CmoDREB2A against CmoNAC1 alone came out at 67%. In addition, in the experiment with nYFP-CmoNAC1 (pumpkin) [2], the LUC/RLU ratio of the reporter with the NACbs of the CmoAKT1;2 promoter in tobacco: CmoDREB2A + CmoNAC1 against CmoNAC1 alone is 99% and the LUC/RLU ratio of the reporter with the NACbs of the CmoHKT1;1 promoter in tobacco: CmoDREB2A + CmoNAC1 against CmoNAC1 alone worked out at 107%.
